Measured values taken from US20050207995A1.

Key:
[1] = target: human whole saliva (human); assay: ELISA: 1:2 dilution of whole saliva coated, 65 kDa protein added, detected with rat anti-65 kDa serum
[2] = target: human salivary α-amylase (Type IX A, Sigma Chemical Co.) (human); assay: ELISA: amylase (10.0 µg/ml) coated, 65 kDa protein added, detected with rat anti-65 kDa serum
human salivary α-amylase (Type IX A, Sigma Chemical Co.) (human), sequence (P0DUB6 16-511): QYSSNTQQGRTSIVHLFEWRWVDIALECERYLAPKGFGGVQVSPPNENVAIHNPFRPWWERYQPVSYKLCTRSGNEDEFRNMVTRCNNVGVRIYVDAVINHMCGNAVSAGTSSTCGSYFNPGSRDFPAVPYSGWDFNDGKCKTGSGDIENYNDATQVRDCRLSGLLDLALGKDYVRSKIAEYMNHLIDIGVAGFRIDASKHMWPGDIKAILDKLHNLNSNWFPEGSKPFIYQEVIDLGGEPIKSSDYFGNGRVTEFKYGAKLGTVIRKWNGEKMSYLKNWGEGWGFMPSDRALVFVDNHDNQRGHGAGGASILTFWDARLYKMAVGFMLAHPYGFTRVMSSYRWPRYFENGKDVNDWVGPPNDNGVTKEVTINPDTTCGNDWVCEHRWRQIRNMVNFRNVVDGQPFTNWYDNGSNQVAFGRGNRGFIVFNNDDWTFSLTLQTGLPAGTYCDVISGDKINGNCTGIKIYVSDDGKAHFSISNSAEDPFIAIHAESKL

Substance: purified 65 kDa fimbrial protein of S. mutans A32-2 (serotype c) (enzyme)
- O.D. (ELISA absorbance at 490 nm) [1]: 0.26 O.D.
- O.D. (ELISA absorbance at 490 nm) [2]: 0.25 O.D.
